Reference: US20250361274A1, “PEPTIDE AND PEPTIDE-CONTAINING AGENT” (PEPTIDREAM INC., priority 2022, published 2025)
Numbered stars: 1 amine (or outer) side, 2 acyl side, 3 side chain; on linkers, the order of the positions; unused ones are H or OH. Bridge positions count the residues as written; N and C are the ends. Square brackets hold non-standard residues; d marks the D form. Ends that are not written are not given here. KCOpipzaa = N6-(4-(carboxymethyl)piperazine-1-carbonyl)-L-lysine, O=C(NCCCC[C@H](N[*:1])C(=O)[*:2])N1CCN(CC(=O)[*:3])CC1; Phe(4-(4-pyridyl)) = N[C@@H](Cc1ccc(-c2ccncc2)cc1)C(=O)O; Phe(4-guanidino) = N=C(N)Nc1ccc(C[C@H](N)C(=O)O)cc1; 3Pal(6-Ph) = N[C@@H](Cc1ccc(-c2ccccc2)nc1)C(=O)O; Phe(4-COOH) = N[C@@H](Cc1ccc(C(=O)O)cc1)C(=O)O; NMePhe(4-Me) = CN[C@@H](Cc1ccc(C)cc1)C(=O)O; Bip = N[C@@H](Cc1ccc(-c2ccccc2)cc1)C(=O)O; Phe(4-Cl) = N[C@@H](Cc1ccc(Cl)cc1)C(=O)O; Phe(4-F) = N[C@@H](Cc1ccc(F)cc1)C(=O)O; Ala(4-THP) = N[C@@H](CC1CCOCC1)C(=O)O; NMeF = CN[C@@H](Cc1ccccc1)C(=O)O; 4Pal = N[C@@H](Cc1ccncc1)C(=O)O; Aad = N[C@@H](CCCC(=O)O)C(=O)O; Cha = N[C@@H](CC1CCCCC1)C(=O)O; Chg = N[C@H](C(=O)O)C1CCCCC1; Abu = CC[C@H](N)C(=O)O; βAla = NCCC(=O)O

Columns and labels:
[1] = target: T1, BMP7 (Homo sapiens, UniProt P18075); test: BMP7 signal transduction inhibitory activity: SMAD1 phosphorylation by BMP7 stimulus, A549 cells; assay type: cell-based; details: for aLIZA BMP7 (10 nM) % Inh: SMAD1 phosphorylation by BMP7 stimulus, peptide conc. in assay 10, 100, 1000 nM, class symbols; for aLISA BMP7: A549 cells
T1 sequence (P18075 293-431): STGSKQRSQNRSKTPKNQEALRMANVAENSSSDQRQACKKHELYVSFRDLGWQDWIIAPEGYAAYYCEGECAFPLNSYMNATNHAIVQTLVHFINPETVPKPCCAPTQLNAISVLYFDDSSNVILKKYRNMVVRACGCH
How it was run: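 Cell line A549; stimulus BMP7 10 nM; endpoint pSMAD1. Peptide doses: three concentrations (1–1,000 nM range) or 8 × 1/3 dilutions from 100/1,000 nM.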

[2] = target: T2, BMP4 (Homo sapiens, UniProt P12644); test: BMP4 signal transduction inhibitory activity: SMAD1 phosphorylation by BMP4 stimulus, AlphaLISA SureFire, A549 cells; assay type: cell-based; details: for aLIZA BMP4 (0.2 nM) % Inh: SMAD1 phosphorylation by BMP4 stimulus, peptide conc. in assay 0.02, 0.2, 2 nM, class symbols; for aLISA BMP4: A549 cells
T2 sequence (P12644 293-408): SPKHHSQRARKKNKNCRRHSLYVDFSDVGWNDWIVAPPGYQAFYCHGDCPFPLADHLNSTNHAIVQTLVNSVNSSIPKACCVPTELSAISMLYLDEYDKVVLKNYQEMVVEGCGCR

[3] = SMAD1 phosphorylation, BMP7 10 nM, peptide conc. in assay 1, 10, 100 nM
[4] = SMAD1 phosphorylation, BMP4 0.2 nM, peptide conc. in assay 0.2, 2, 20 nM
[5] = inhibition of SMAD1 phosphorylation by BMP7 stimulus, peptides of Synthesis 1, classes E, F, ND
[6] = inhibition of SMAD1 phosphorylation by BMP4 stimulus, peptides of Synthesis 1, classes D-F, ND
[7] = inhibition of SMAD1 phosphorylation by BMP7 stimulus, AlphaLISA, class by peptide concentration zone
[8] = inhibition of SMAD1 phosphorylation by BMP4 stimulus, AlphaLISA, class by peptide concentration zone
[9] = BMP7 10 nM stimulus, peptide conc. in assay 1, 10, 100 nM
[10] = BMP4 0.2 nM stimulus, peptide conc. in assay 0.2, 2, 20 nM

## 362 (FG[NMeF]GFGDE[Cha]A[NMeF]LHCG-NH2; not fully specified (N-terminus, bridges)) [compound 362]
[1]; [3]
  aLISA BMP7 (10 nM) % inh: D (showed less than 30% of inhibitory activity in 10 nM-addition zone and showed 30% or more of inhibitory activity in 100 nM-addition zone)
[2]; [4]
  aLISA BMP4 (0.2 nM) % inh: ND (the inhibitory activity was less than 30% at the maximum concentration evaluated)

## 347 (FG[NMeF]G[Bip]GDD[Cha]A[NMeF][Chg]HCG-NH2; not fully specified (N-terminus, bridges)) [compound 347]
[1]; [3]
  aLISA BMP7 (10 nM) % inh: D (showed less than 30% of inhibitory activity in 10 nM-addition zone and showed 30% or more of inhibitory activity in 100 nM-addition zone)
[2]; [4]
  aLISA BMP4 (0.2 nM) % inh: ND (the inhibitory activity was less than 30% at the maximum concentration evaluated)

## 250 (ERVYVDR[3Pal(6-Ph)]HYV[Bip]Y[Phe(4-COOH)][Phe(4-COOH)]SCG-NH2; not fully specified) [compound 250]
[1]
  aLIZA BMP7 (10 nM) % Inh: E (showed less than 30% of inhibitory activity in 100 nM-addition zone and showed 30% or more of inhibitory activity in 1,000 nM-addition zone)
[2]
  aLIZA BMP4 (0.2 nM) % Inh: C (showed less than 30% of inhibitory activity in 0.2 nM-addition zone and showed 30% or more of inhibitory activity in 2 nM-addition zone)

## 337 (FG[NMeF]G[Bip]GDD[Cha][Aad][NMeF]LHCG-NH2; not fully specified (N-terminus, bridges)) [compound 337]
[1]; [3]
  aLISA BMP7 (10 nM) % inh: D (showed less than 30% of inhibitory activity in 10 nM-addition zone and showed 30% or more of inhibitory activity in 100 nM-addition zone)
[2]; [4]
  aLISA BMP4 (0.2 nM) % inh: ND (the inhibitory activity was less than 30% at the maximum concentration evaluated)

## 380 (FG[NMeF]G[Phe(4-Cl)]GDD[Cha]A[NMeF]LHCG-NH2; not fully specified) [compound 380]
[1]; BMP7 10 nM stimulus, peptide conc. in assay 10, 30, 90 nM
  aLISA BMP7 (10 nM) % inh: F (showed less than 30% of inhibitory activity in 10 nM-addition zone and showed 30% or more of inhibitory activity in 30 nM-addition zone)
[2]; BMP4 0.2 nM stimulus, peptide conc. in assay 2, 20, 200 nM
  aLISA BMP4 (0.2 nM) % inh: B (showed less than 30% of inhibitory activity in 20 nM-addition zone and showed 30% or more of inhibitory activity in 200 nM-addition zone)

## 364 (FG[NMeF]G[Bip]GDE[Cha]Q[NMeF]LHCG-NH2; not fully specified (N-terminus, bridges)) [compound 364]
[1]; [3]
  aLISA BMP7 (10 nM) % inh: D (showed less than 30% of inhibitory activity in 10 nM-addition zone and showed 30% or more of inhibitory activity in 100 nM-addition zone)
[2]; [4]
  aLISA BMP4 (0.2 nM) % inh: ND (the inhibitory activity was less than 30% at the maximum concentration evaluated)

## 146 ({CH2CO}-ERVYVDR[Bip]PY[Ala(4-THP)][Bip]Y[Phe(4-COOH)][Phe(4-COOH)]SCG-NH2; thioether N-17; not fully specified) [compound 146]
[1]; [5]
  aLISA BMP7: E (showed 50% or more of inhibitory activity in a zone to which the peptide was added in an amount of 10 nM)
[2]; [6]
  aLISA BMP4: D (showed 50% or more of inhibitory activity in 0.2 nM-addition zone)

## 72 ({CH2CO}-ERVYVDR[Bip]PYP[Bip][Phe(4-F)][Phe(4-COOH)][4Pal]SCG-NH2; thioether N-17; not fully specified) [compound 72]
[1]; [7]
  aLISA BMP7: C (showed less than 50% of inhibitory activity in 10 nM-addition zone and showed 50% or more of inhibitory activity in 100 nM-addition zone)
[2]; [8]
  aLISA BMP4: A (showed an inhibitory activity of 50% or more in a zone to which the peptide was added to in an amount of 0.2 nM)

## 134 ({CH2CO}-ERVYVD[Phe(4-guanidino)][Bip]PYV[Bip]Y[Phe(4-COOH)][Phe(4-COOH)]SCG-NH2; thioether N-17; not fully specified) [compound 134]
[1]; [5]
  aLISA BMP7: E (showed 50% or more of inhibitory activity in a zone to which the peptide was added in an amount of 10 nM)
[2]; [6]
  aLISA BMP4: E (showed less than 50% of inhibitory activity in 0.2 nM-addition zone and showed 50% or more of inhibitory activity in 2 nM-addition zone)

## 406 (FG[NMeF]G[Bip]GDE[Cha]Q[NMeF]L[Phe(4-COOH)]C[βAla]) [compound 406]
[1]; [9]
  aLISA BMP7 (10 nM) % inh: D (showed less than 30% of inhibitory activity in 10 nM-addition zone and showed 30% or more of inhibitory activity in 100 nM-addition zone)
[2]; [10]
  aLISA BMP4 (0.2 nM) % inh: ND (the inhibitory activity was less than 30% at the maximum concentration evaluated)

## 34 ({CH2CO}-AKVYVDH[Bip]PYP[Bip]Y[Phe(4-COOH)][Phe(4-COOH)]SCG-NH2; thioether N-17; not fully specified) [compound 34]
[1]; 10 nM BMP7, peptides of Synthesis 2, peptide 1, 10, 100 nM
  aLISA BMP7: C (showed less than 50% of inhibitory activity in 10 nM-addition zone and showed 50% or more of inhibitory activity in 100 nM-addition zone)
[2]; SMAD1 phosphorylation, peptides of Synthesis 2, peptide 0.02, 0.2, 2 nM
  aLISA BMP4: A (showed an inhibitory activity of 50% or more in a zone to which the peptide was added to in an amount of 0.2 nM)

## 418 (FG[NMeF]G[3Pal(6-Ph)]GDE[Cha][Aad][NMeF]L[Abu]C-NH2; not fully specified) [compound 418]
[1]; [9]
  aLISA BMP7 (10 nM) % inh: D (showed less than 30% of inhibitory activity in 10 nM-addition zone and showed 30% or more of inhibitory activity in 100 nM-addition zone)
[2]; [10]
  aLISA BMP4 (0.2 nM) % inh: ND (the inhibitory activity was less than 30% at the maximum concentration evaluated)

## 420 ([Phe(4-F)]G[NMeF]G[3Pal(6-Ph)]GDE[Cha][Aad][NMePhe(4-Me)]L[Abu]C-NH2; also: cyclic peptide, ring closure not given here) [compound 420]
[1]; [9]
  aLISA BMP7 (10 nM) % inh: D (showed less than 30% of inhibitory activity in 10 nM-addition zone and showed 30% or more of inhibitory activity in 100 nM-addition zone)
[2]; [10]
  aLISA BMP4 (0.2 nM) % inh: ND (the inhibitory activity was less than 30% at the maximum concentration evaluated)

## 263 (ERVYV[KCOpipzaa]R[3Pal(6-Ph)]SYV[Bip]Y[Phe(4-COOH)][Phe(4-COOH)]SCG-NH2; not fully specified) [compound 263]
[1]
  aLIZA BMP7 (10 nM) % Inh: E (showed less than 30% of inhibitory activity in 100 nM-addition zone and showed 30% or more of inhibitory activity in 1,000 nM-addition zone)
[2]
  aLIZA BMP4 (0.2 nM) % Inh: C (showed less than 30% of inhibitory activity in 0.2 nM-addition zone and showed 30% or more of inhibitory activity in 2 nM-addition zone)

## 98 ({CH2CO}-ERVYV[KCOpipzaa]R[3Pal(6-Ph)]SYP[Bip]Y[Phe(4-COOH)][Phe(4-COOH)]SC[βAla][dE]-OH; thioether N-17; not fully specified) [compound 98]
[1]; inhibition of SMAD1 phosphorylation by BMP7 stimulus, peptides of Synthesis 2, classes A-D, ND
  aLISA BMP7: C (showed less than 50% of inhibitory activity in 10 nM-addition zone and showed 50% or more of inhibitory activity in 100 nM-addition zone)
[2]; inhibition of SMAD1 phosphorylation by BMP4 stimulus, peptides of Synthesis 2, classes A-C, ND
  aLISA BMP4: A (showed an inhibitory activity of 50% or more in a zone to which the peptide was added to in an amount of 0.2 nM)

## 325 (FG[NMeF]G[Phe(4-(4-pyridyl))]GDD[Cha]A[NMeF]LHCG-NH2; not fully specified) [compound 325]
[1]; [3]
  aLISA BMP7 (10 nM) % inh: D (showed less than 30% of inhibitory activity in 10 nM-addition zone and showed 30% or more of inhibitory activity in 100 nM-addition zone)
[2]; [4]
  aLISA BMP4 (0.2 nM) % inh: ND (the inhibitory activity was less than 30% at the maximum concentration evaluated)

## 366 (FG[NMeF]G[Bip]GDE[Cha][Aad][NMeF]LHCG-NH2; not fully specified (N-terminus, bridges)) [compound 366]
[1]; [3]
  aLISA BMP7 (10 nM) % inh: D (showed less than 30% of inhibitory activity in 10 nM-addition zone and showed 30% or more of inhibitory activity in 100 nM-addition zone)
[2]; [4]
  aLISA BMP4 (0.2 nM) % inh: ND (the inhibitory activity was less than 30% at the maximum concentration evaluated)

## 336 (FG[NMeF]G[Bip]GDD[Cha]E[NMeF]LHCG-NH2; not fully specified (N-terminus, bridges)) [compound 336]
[1]; [3]
  aLISA BMP7 (10 nM) % inh: D (showed less than 30% of inhibitory activity in 10 nM-addition zone and showed 30% or more of inhibitory activity in 100 nM-addition zone)
[2]; [4]
  aLISA BMP4 (0.2 nM) % inh: ND (the inhibitory activity was less than 30% at the maximum concentration evaluated)

## 46 (ARVYVDR[Bip]PYP[Bip]Y[Phe(4-COOH)][Phe(4-COOH)]SC) [compound 46]
[1]; [7]
  aLISA BMP7: ND (the inhibitory activity was less than 30% at the maximum concentration evaluated)
[2]; [8]
  aLISA BMP4: A (showed an inhibitory activity of 50% or more in a zone to which the peptide was added to in an amount of 0.2 nM)
